{"source": "patent US7597905", "key": {"[1]": {"target": "HBsAg particles (hepatitis B virus surface antigen L protein particles expressed in recombinant yeast carrying pGLDLIIP39-RcT) (hepatitis B virus)", "assay": "Auszyme II EIA kit, S-antigenicity of purified particles"}, "[2]": {"target": "HBsAg (G145R) particles (hepatitis B virus)", "assay": "Auszyme II EIA kit, S-antigenicity of purified particles"}}}
{"substance": "Auszyme II EIA kit (Dainabot Co. Ltd.) (antibody)", "values": [{"measurement": "S-antigenicity", "setting": "[1]", "value": 1}, {"measurement": "S-antigenicity", "setting": "[2]", "value": 0.2}]}
